Measurements reported in paper PMC4358366, “Identification of ‘erasers’ for lysine crotonylated histone marks using a chemical proteomics approach” (eLife, 2014).

Biological target: T1, Sirt3 F180L (Homo sapiens, UniProt Q9NTG7, F180L)
T1 construct: His tag (from pTrcHis 2C vector; nickel column purification); made in house; host or cells: E. coli Rosetta
T1 sequence (Q9NTG7 102-399 F180L): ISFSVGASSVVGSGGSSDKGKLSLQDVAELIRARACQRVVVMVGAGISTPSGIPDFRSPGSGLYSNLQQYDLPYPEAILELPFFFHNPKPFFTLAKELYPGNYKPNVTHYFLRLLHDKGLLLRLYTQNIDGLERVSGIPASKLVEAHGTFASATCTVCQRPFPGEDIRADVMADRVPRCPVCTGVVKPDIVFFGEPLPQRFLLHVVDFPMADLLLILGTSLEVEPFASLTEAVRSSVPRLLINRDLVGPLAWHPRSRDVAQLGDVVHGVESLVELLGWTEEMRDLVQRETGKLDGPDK
Experiment: Steady state kinetics of deacetylation by Sirt3 F180L mutant
Type: biochemical
Details: F180L vs wild-type Sirt3 (H3K4Ac, Figure 4—figure supplement 6)
Method: Plasmids of Sirt1 (193–747), Sirt2 (36–356), Sirt5 (34–302), and Sirt6 (1–314) for Escherichia coli expression were generated as previously described ([Finnin et al., 2001]; [Du et al., 2011]; [Hubbard et al., 2013]; [Jiang et al., 2013]). […] Sirt3 mutant F180L was generated by site directed mutagenesis. All of the proteins were expressed in E. coli Rosetta cells. To induce expression of target proteins, isopropyl β-D-1-thiogalactopyranoside was added to a final concentration of 0.2 mM when OD600 reached 0.6, and the culture was grown at 15 °C (Sirt3 at 25 °C) for 16–18 hr. Cells were harvested and resuspended in lysis buffer A (50 mM Tris–HCl, pH 7.5, 500 mM NaCl, 1 mM PMSF, and Roche EDTA free protease inhibitors, for Sirt1, Sirt2, and Sirt6) or buffer B (50 mM Tris–HCl, pH 7.5, 150 mM NaCl, 1 mM PMSF, and Roche EDTA free protease inhibitors, for Sirt3 and Sirt5). […]
Enzyme was incubated with different concentrations of corresponding peptides bearing two tryptophans at the C terminus (20, 40, 60, 80, 100, 200, and 500 μM) and 1.0 mM NAD in 20 mM Tris–HCl buffer (pH 7.5) containing 1 mM DTT in 25 μL reaction at 37°C for a certain period of time within the initial linear range. […] Samples were then analyzed by HPLC with a Vydac 218TP C18 column (4.6 mm×250 mm, 5 μm; Grace Davison). […]

B1: Sirt3 F180L: Sirt3 mutant with Phe180 mutated to leucine (protein, UniProt Q9NTG7 1-399, looked up, variant F180L)
chain: MAFWGWRAAAALRLWGRVVERVEAGGGVGPFQACGCRLVLGGRDDVSAGLRGSHGARGEPLDPARPLQRPPRPEVPRAFRRQPRAAAPSFFFSSIKGGRRSISFSVGASSVVGSGGSSDKGKLSLQDVAELIRARACQRVVVMVGAGISTPSGIPDFRSPGSGLYSNLQQYDLPYPEAILELPFFFHNPKPFFTLAKELYPGNYKPNVTHYFLRLLHDKGLLLRLYTQNIDGLERVSGIPASKLVEAHGTFASATCTVCQRPFPGEDIRADVMADRVPRCPVCTGVVKPDIVFFGEPLPQRFLLHVVDFPMADLLLILGTSLEVEPFASLTEAVRSSVPRLLINRDLVGPLAWHPRSRDVAQLGDVVHGVESLVELLGWTEEMRDLVQRETGKLDGPDK
decrease in deacetylation activity caused by F180L mutation: about a two-fold decrease
